# Experimental data: patent US20260317430 (published 2026)
# Residue numbers refer to the chain shown, from its start.
# T1: mouse FGFR2b (mouse, UniProt P21803)
# T1 chain: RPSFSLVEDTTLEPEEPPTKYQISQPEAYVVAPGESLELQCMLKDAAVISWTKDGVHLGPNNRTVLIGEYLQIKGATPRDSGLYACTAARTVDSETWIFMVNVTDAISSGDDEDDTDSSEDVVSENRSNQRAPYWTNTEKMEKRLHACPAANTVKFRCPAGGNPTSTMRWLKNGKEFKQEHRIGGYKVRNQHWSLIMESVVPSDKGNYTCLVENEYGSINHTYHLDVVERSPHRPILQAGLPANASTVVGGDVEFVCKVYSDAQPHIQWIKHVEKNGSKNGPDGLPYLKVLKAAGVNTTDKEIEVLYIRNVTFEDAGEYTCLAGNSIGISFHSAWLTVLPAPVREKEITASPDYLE
# B1: 3E1 (antibody, V domains shown)
# VH: QVQLQQPGAEVVKPGASVKMSCKASGYTFTDYYIHWVKQTPGQGLEWIGAIYPDNGDTSYNQKFKVKATLTADKSSSTAYMQLSSLTSEDSAVYYCARAFTYWGQGTLVTVSA
# VL: DILITQSPASLSASVGETVTITCGASENIYGALNWYQRKQGKSPQLLIYGATNLADGMSSRFSGSGSGRQYSLKISSLHPDDVATYYCQNVLSTPYTFGGGTKLEIK
# B2: 3C7 (antibody, V domains shown)
# VH: EIQLQQSGAELVKPGASVKMSCKASGYIFRNYYIHWVKRTPGQGLEWIGAIYPDNGDTSYNQRFKVKATLTADTSSSTAYMQLSSLTSEDSAVYYCARAFTYWGQGTTLTVSS
# VL: B1 VL with L3Q, I4M, T5I
# B3: 2B1 (antibody, V domains shown)
# VH: EVQLQQSGAELVKPGASVKMSCKASGYTFASYNLHWVKQTPGQGLEWIGLIYPENGDTSYNQKFKGKATLTADKSSSTAYIQLSSLTSEDSAVYFCARGGFDYWGQGTSLTVSS
# VL: DIQMIQSPASLSVSVGETVTITCRASENIYSNLAWYQQKQGKSPQLLVYNAKTLADGVPSRFSGSGSGTQYSLKINSLQPEDFGSYYCQHFWSTPYTFGGGTKLEIK
# B4: 1B8 (antibody, V domains shown)
# VH: B3 VH with E1Q, V2I, K74T, S77T
# VL: B1 VL with L3K, I4M
# B5: 3A3 (antibody, V domains shown)
# VH: QVQLQQSGAELVKPGASVKMSCKASGYTFTTYNIHWVRQTPGQGLEWIGLIYPDNGDTSYNQKFKAKATLTADKSSSTAYMHLSSLTSEDSAVYYCARGGFDYWGQGTTLTVSS
# VL: DIVMTQSHKFMSTSVGDRVSITCKASQDVNTDVSWYQQKPGQSPKLLIYSASYRYTGVPTRFTGSGSGTDFTFTISGVQAEDLADYYCQQHYNTPYTFGGGTRLEIK
# B6: 3D7 (antibody, V domains shown)
# VH: QVQLQQSGAELVKPGASVKMSCKASGYTFSFYNMHWVKRTPGRGLEWIGLIYPDNGDTSYNQKFKGKATLTADTSSSTAYMQLSSLTSEDSAVYYCARGGLDYWGQGTSLTVSS
# VL: EIVLTQSPASLAVSLGQRATISCKASQSVDYDGDSYMNWYQQKPGQPPKLLIYGISNRFSGVPDRFSGSGSGTDFTLKISTIKPEDLGMYYCLQGTHQPYTFGGGTKLEIK
# B7: 3F5 (antibody, V domains shown)
# VH: B6 VH with Q1E, V2I, S30R, F31Y, R43Q, S109T
# VL: B1 VL with L3V, I4L
# B8: 3C9 (antibody, V domains shown)
# VH: B6 VH with Q1E, V2I, T28I, S30R, F31Y, R43Q, S109T
# VL: B1 VL with L3Q, I4M, T5I
# B9: 1D7 (antibody, V domains shown)
# VH: B6 VH with V2I, S30R, F31Y, R43Q
# VL: DIQMTQSPSSMSASLGDRITITCQATQDIVKNLNWYQQKPGKPPSFLIYYATELAEGVPSRFSGSGSGSDYSLTISNLESEDFADYYCLQFYEFPLTFGAGTKLELK
# B10: 3E3 (antibody, V domains shown)
# VH: B6 VH with S7P, E10V, K19R, S30P, F31Y, M34V, R43Q, K65T, S109T, S114A
# VL: B1 VL with I2V, L3Q
# B11: 3B4 (antibody, V domains shown)
# VH: B6 VH with Q1E, E10D, F31Y, K38R, R43Q, S109T
# VL: B1 VL with L3Q, I4M, T5I, L11M, I106M
# B12: 3E7 (antibody, V domains shown)
# VH: B5 VH with T31I, H82Q
# VL: NIVMTQSQKFMSTSVGDRVSVTCKASQNVGTNVAWYQQKPGQSPKALIYSASYRYSGVPDRFTGSGSGTDFTLTISGVQAEDLADYYCQQHYNTPYTFGGGTKLEIK
# B13: 3F10 (antibody, V domains shown)
# VH: B5 VH with Q1E, T30S, T31F, H82Q
# VL: B1 VL with I2V, I4M
# B14: 3D6 (antibody, V domains shown)
# VH: B6 VH with S30R, F31Y, R43Q
# VL: B3 VL with I5T, Y96F, G100S, I106L
# B15: 3A12 (antibody, V domains shown)
# VH: B5 VH with Q1E, T30S, T31F, I34V, T78A, H82Q, T109S
# VL: DIVMTQSHKFMSTSVGDRVNITCKASQDVSTAVAWYQQKPGQSPKLLIYSASYRYSGVPDRFTGSGSGTDFTFTISSVQAEDLAVYYCQQHYSTPYTFGGGTKLEMK
# B16: 3F11 (antibody, V domains shown)
# VH: B5 VH with T30A, T31P, H82Q, T109S
# VL: B12 VL with N1D, G77N, A80S, D85E, Y87F, N93S, Y96F, G100S
# B17: 3H6 (antibody, V domains shown)
# VH: B5 VH with T30S, T31F, H82Q
# VL: B3 VL with I5T, V13A, N32Y, D56E, Y71F, F91H, W92Y, S93G, I106M
# B18: 3A8 (antibody, V domains shown)
# VH: B5 VH with T31I, H82Q, T109S
# VL: B12 VL with N1D, G77N, Y87F, N93S, I106M
# Molecular target: human FGFR2b on KATO III cells (human, UniProt P21802)
# Assay: FACS
# Chain of human FGFR2b on KATO III cells (P21802 22-377): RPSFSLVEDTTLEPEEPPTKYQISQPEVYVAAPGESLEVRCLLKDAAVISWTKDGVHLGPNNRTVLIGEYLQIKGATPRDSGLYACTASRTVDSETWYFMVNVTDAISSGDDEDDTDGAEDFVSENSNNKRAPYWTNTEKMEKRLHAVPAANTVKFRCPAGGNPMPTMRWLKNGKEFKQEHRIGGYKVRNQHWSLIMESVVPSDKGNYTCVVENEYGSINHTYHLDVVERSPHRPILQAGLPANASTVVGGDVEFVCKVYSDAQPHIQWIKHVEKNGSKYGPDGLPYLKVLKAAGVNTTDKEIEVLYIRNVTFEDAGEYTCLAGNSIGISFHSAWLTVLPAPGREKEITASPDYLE
row,EC50 [µg/mL],Binder
1,0.132,B1
2,0.2,B2
3,0.195,B3
4,0.133,B4
5,0.236,B5
6,0.259,B6
7,0.105,B7
8,0.253,B8
9,0.167,B9
10,0.376,B10
11,0.168,B11
12,0.298,B12
13,0.159,B13
14,0.136,B14
15,0.292,B15
16,0.164,B16
17,0.226,B17
18,0.199,B18

# Molecular target: T2, human FGFR2b extracellular domain (human, UniProt P21802)
# Assay: ELISA
# T2 sequence (P21802 22-377): as above
row,EC50 [µg/mL],Binder
1,0.0156,B1
2,0.0166,B2
3,0.0276,B3
4,0.0273,B4
5,0.0216,B5
6,0.0369,B6
7,0.0159,B7
8,0.0147,B8
9,0.0154,B9
10,0.0273,B10
11,0.0166,B11
12,0.0154,B12
13,0.00818,B13
14,0.0369,B14
15,0.0128,B15
16,0.0156,B16
17,0.0128,B17
18,0.0278,B18

# Molecular target: T2, human FGFR2b extracellular domain
# Assay: BLI
row,Kd [nM],Binder
1,4.5,B1
2,3.99,B2
3,6.67,B3
4,13.3,B4
5,3.71,B5
6,8.58,B6
7,5.1,B7
8,2.7,B8
9,4.51,B9
10,8.18,B10
11,6.28,B11
12,4.35,B12
13,7.62,B13
14,15,B14
15,2.82,B15
16,6.13,B16
17,8.41,B17
18,3.48,B18

# Molecular target: T1, mouse FGFR2b
# Assay: BLI
row,Kd [nM],Binder
1,21.8,B1
2,8.71,B2
3,23,B3
4,74.9,B4
5,39.6,B5
6,81.7,B6
7,36.1,B7
8,9.95,B8
9,27.6,B9
10,52.7,B10
11,27.3,B11
12,40.9,B12
13,52.5,B13
14,21.7,B14
15,10.7,B15
16,26,B16
17,43.7,B17
18,7.17,B18
